Experimental findings from paper PMC5868747 are described below.

Where two headings read alike, the source gives them in different places.

Data set [1] concerns the target T1, Myc-RTA (IVT) (Kaposi's sarcoma-associated herpesvirus …, UniProt F5HCV3 1-691). The data set is described as follows: EMSA. A general note: In EMSA bound probe runs differently from free probe, usually more slowly.
Data set [2] deals with T1, Myc-RTA (IVT). The data set is described as follows: EMSA. This is another data set of the same source.

T1 sequence (F5HCV3 whole entry): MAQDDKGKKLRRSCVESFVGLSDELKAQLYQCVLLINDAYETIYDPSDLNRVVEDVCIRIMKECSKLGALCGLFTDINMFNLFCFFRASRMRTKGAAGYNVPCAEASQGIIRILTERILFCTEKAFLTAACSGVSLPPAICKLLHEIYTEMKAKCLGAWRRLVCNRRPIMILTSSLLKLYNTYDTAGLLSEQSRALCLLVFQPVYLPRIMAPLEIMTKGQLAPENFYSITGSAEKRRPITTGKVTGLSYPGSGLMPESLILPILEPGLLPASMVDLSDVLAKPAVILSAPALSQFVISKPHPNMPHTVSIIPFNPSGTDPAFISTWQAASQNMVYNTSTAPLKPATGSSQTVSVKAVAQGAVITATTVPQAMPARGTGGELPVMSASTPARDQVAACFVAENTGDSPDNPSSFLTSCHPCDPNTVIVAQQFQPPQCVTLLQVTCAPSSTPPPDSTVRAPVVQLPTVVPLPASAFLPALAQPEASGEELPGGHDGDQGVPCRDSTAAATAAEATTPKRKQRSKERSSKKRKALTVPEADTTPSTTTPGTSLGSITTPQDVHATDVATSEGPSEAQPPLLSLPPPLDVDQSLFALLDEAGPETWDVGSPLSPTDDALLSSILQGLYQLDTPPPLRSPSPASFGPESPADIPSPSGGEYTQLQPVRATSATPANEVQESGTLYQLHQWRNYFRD

B1: 59pA (dsDNA)
DNA 1: ACACCACGTGTGTGACTGACGATTTGTGAAGGTTAACCTGTCCATGTCGC
DNA 2: GCGACATGGACAGGTTAACCTTCACAAATCGTCAGTCACACACGTGGTGT
Regarding B1, the binding result in data set [1] is listed as “binds”.

B2: 59pF (minimal RRE) (dsDNA)
DNA 1: CGATTTGTGAAGGTTAACCTGTCCATG
DNA 2: CATGGACAGGTTAACCTTCACAAATCG
As to B2, the binding result in data set [2] is recorded as “binds”.
